Experimental data taken from patent US20250000992A1 (Eli Lilly, published 2025).

Molecular target: T1, Sortilin receptor on HEK293 cells (UniProt Q99523 78-831, limits assumed)
T1 construct: whole, on cells
Assay: +/- matrix drawn left of the bar chart (Cathepsin D ELISA, HEK293 cells); the binding assay behind the marks is not given

binding result: binds
B1: His-PGRN (ligand)
single chain: HHHHHHGGGGQGGGGQGGGGQENLYFQSGGGGQTRCPDGQFCPVACCLDPGGASYSCCRPLLDKWPTTLSRHLGGPCQVDAHCSAGHSCIFTVSGTSSCCPFPEAVACGDGHHCCPRGFHCSADGRSCFQRSGNNSVGAIQCPDSQFECPDFSTCCVMVDGSWGCCPMPQASCCEDRVHCCPHGAFCDLVHTRCITPTGTHPLAKKLPAQRTNRAVALSSSVMCPDARSRCPDGSTCCELPSGKYGCCPMPNATCCSDHLHCCPQDTVCDLIQSKCLSKENATTDLLTKLPAHTVGDVKCDMEVSCPDGYTCCRLQSGAWGCCPFTQAVCCEDHIHCCPAGFTCDTQKGTCEQGPHQVPWMEKAPAHLSLPDPQALKRDVPCDNVSSCPSSDTCCQLTSGEWGCCPIPEAVCCSDHQHCCPQGYTCVAEGQCQRGSEIVAGLEKMPARRASLSHPRDIGCDQHTSCPVGQTCCPSLGGSWACCQLPHAVCCEDRQHCCPAGYTCNVKARSCEKEVVSAQPATFLARSPHVGVKDVECGEGHFCHDNQTCCRDNRQGWACCPYRQGVCCADRRHCCPAGFRCAARGTKCLRREAPRWDAPLRDPALRQLL
notes: 55; also called His tagged PGRN; His-Tagged PGRN
